In this assay the target is T1, SF3B core complex (human, UniProt O75533 453-1304; Q15393 1-1217; Q9BWJ5 1-86; Q7RTV0 1-98).
T1 construct: SF3B1 C-terminal HEAT domain, residues 453-1304; SF3B3, residues 1-1217; SF3B5, residues 1-86; PHF5A, residues 1-98; SF3B3 carries an N-terminal His6 and a TEV protease cleavage site; no cleavage step is described in the purification; also called SF3B complex; source: Tni insect cells (baculovirus), coexpressed, purified (Ni-NTA, Superdex 200 gel filtration); copies: + + +
Kind of assay: SEC; purified SF3B complex and DHX15 (113–795)–SUGP1 (433–645) heterodimer mixed at a molar ratio of 1:5, overnight at 4°C, Superose 6 Increase 10/300 in 20 mM HEPES pH 7.9, 300 mM KCl, 5% glycerol, 5 mM DTT; complex fractions rerun and peak analysed by SDS-PAGE. As to conditions: both partners purified.

T1 sequence (O75533 453-1304, chain 1 of 4): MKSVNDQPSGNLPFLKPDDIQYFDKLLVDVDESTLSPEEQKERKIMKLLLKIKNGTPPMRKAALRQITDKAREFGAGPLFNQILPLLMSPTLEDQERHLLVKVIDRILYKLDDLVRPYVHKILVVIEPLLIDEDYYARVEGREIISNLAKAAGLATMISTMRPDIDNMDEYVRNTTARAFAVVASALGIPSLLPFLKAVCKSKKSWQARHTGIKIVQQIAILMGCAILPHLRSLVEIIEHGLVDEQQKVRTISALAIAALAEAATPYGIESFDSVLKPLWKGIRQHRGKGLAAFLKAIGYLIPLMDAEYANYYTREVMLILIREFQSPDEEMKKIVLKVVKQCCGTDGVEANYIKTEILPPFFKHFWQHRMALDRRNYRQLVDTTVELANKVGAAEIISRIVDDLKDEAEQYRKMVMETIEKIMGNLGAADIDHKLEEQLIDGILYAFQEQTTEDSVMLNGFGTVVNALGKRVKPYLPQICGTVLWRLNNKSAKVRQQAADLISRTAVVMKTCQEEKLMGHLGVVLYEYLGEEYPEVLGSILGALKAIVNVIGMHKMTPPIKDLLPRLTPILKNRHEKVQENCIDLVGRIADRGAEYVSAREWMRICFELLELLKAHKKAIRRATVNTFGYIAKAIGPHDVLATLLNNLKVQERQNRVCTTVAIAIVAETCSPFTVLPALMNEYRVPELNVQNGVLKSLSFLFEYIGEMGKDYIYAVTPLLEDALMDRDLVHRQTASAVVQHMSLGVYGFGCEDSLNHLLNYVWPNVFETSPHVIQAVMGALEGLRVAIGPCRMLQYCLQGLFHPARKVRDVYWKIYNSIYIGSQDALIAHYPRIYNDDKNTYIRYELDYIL
T1 sequence (Q15393 whole entry, chain 2 of 4, the tested form may be a part): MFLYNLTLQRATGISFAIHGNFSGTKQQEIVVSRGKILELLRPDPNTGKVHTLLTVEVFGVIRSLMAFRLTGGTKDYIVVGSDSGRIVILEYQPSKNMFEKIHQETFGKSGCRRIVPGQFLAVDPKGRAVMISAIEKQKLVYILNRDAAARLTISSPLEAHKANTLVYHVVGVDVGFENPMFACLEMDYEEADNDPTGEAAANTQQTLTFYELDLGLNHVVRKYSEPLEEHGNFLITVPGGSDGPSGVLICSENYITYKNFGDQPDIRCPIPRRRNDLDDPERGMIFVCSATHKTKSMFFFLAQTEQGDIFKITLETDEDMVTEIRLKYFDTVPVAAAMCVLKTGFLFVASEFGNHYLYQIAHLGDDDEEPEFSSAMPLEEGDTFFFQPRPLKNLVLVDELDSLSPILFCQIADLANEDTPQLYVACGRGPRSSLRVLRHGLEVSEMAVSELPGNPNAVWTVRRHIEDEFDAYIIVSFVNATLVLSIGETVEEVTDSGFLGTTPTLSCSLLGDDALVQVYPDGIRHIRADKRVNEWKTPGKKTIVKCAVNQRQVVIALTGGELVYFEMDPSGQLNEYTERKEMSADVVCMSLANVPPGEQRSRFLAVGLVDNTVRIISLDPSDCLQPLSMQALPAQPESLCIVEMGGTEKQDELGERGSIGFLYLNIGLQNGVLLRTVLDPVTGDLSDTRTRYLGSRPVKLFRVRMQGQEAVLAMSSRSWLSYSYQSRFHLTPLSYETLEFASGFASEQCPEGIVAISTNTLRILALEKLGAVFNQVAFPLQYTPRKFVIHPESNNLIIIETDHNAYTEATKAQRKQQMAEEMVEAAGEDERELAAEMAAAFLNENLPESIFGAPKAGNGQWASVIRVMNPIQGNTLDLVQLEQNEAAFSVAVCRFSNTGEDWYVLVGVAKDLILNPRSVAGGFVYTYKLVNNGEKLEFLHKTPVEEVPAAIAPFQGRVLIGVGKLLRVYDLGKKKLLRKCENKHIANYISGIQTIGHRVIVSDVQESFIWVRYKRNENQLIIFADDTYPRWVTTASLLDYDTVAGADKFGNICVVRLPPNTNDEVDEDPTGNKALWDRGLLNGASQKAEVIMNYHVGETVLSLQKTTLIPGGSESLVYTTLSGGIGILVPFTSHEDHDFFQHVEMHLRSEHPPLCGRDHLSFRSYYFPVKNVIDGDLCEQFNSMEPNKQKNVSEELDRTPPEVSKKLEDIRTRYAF
T1 sequence (Q9BWJ5 whole entry, chain 3 of 4, the tested form may be a part): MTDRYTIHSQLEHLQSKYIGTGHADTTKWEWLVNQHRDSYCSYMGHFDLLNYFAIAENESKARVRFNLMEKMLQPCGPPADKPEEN
T1 sequence (Q7RTV0 1-98, chain 4 of 4): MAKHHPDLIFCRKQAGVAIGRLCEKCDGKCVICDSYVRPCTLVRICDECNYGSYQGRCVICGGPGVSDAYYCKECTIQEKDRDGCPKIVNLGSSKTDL

B1: DHX15 (113–795)–SUGP1 (433–645) heterodimer (complex, human)
chain 1: QCINPFTNLPHTPRYYDILKKRLQLPVWEYKDRFTDILVRHQSFVLVGETGSGKTTQIPQWCVEYMRSLPGPKRGVACTQPRRVAAMSVAQRVADEMDVMLGQEVGYSIRFEDCSSAKTILKYMTDGMLLREAMNDPLLERYGVIILDEAHERTLATDILMGVLKEVVRQRSDLKVIVMSATLDAGKFQIYFDNCPLLTIPGRTHPVEIFYTPEPERDYLEAAIRTVIQIHMCEEEEGDLLLFLTGQEEIDEACKRIKREVDDLGPEVGDIKIIPLYSTLPPQQQQRIFEPPPPKKQNGAIGRKVVVSTNIAETSLTIDGVVFVIDPGFAKQKVYNPRIRVESLLVTAISKASAQQRAGRAGRTRPGKCFRLYTEKAYKTEMQDNTYPEILRSNLGSVVLQLKKLGIDDLVHFDFMDPPAPETLMRALELLNYLAALNDDGDLTELGSMMAEFPLDPQLAKMVIASCDYNCSNEVLSITAMLSVPQCFVRPTEAKKAADEAKMRFAHIDGDHLTLLNVYHAFKQNHESVQWCYDNFINYRSLMSADNVRQQLSRIMDRFNLPRRSTDFTSRDYYINIRKALVTGYFMQVAHLERTGHYLTVKDNQVVQLHPSTVLDHKPEWVLYNEFVLTTKNYIRTCTDIKPEWLVKIAPQYYDMSNFPQCEAKRQLDRIIAKLQSKEYSQY
chain 2: GVTELSDAQKKQLKEQQEMQQMYDMIMQHKRAMQDMQLLWEKAVQQHQHGYDSDEEVDSELGTWEHQLRRMEMDKTREWAEQLTKMGRGKHFIGDFLPPDELEKFMETFKALKEGREPDYSEYKEFKLTVENIGYQMLMKMGWKEGEGLGSEGQGIKNPVNKGTTTVDGAGFGIDRPAELSKEDDEYEAFRKRMMLAYRFRPNPLNNPRRPYY
notes: DHX15 (DEAH-box helicase 15), residues 113-795, lacks the N-terminal unstructured region; DHX15 was fused with N-terminal His6, MBP and a TEV protease cleavage site; also called DHX15–SUGP1; DHX15–SUGP1 heterodimer; source: Tni insect cells (baculovirus), coexpressed, purified as in Zhang et al. 2022a
On to B1, for which the binding result is recorded as “binds”.

Source of the values: PMC10760632, “Characterization of the SF3B1–SUGP1 interface reveals how numerous cancer mutations cause mRNA missplicing” (Genes & Development, 2023).
